We go through 9 molecules from US11156615B2 (priority 2015, dated 2021).

The nature of data set [1]: Thermostability: mid-point thermal denaturation temperature (Tm) from temperature-dependent fluorescence (Roche LightCycler). It is filed as physicochemical. Particulars: for apoTm: apo-protein. The text has this:
Protein (un)folding is monitored by binding of SYPRO to the unfolded state as a function of temperature. Fluorescence intensity increases upon binding of SYPRO by the unfolded state.
Panels A-C: ttGBP182C.2.0-Imm0; Panels D-F: ttGBP182C.2.0-Imm1 (see FIG. 13). (A) Solution (Tm=347.6K). (B) Immobilized on Nickel-nitriloacetic acid (Ni-NTA) beads (Tm=346.7K). (C) Reconstituted, desiccated Ni-NTA beads (Tm=347.6K). (D) Fluorescence response of ttGGBP5.2 Imm1 immobilized on NHS-functionalized agarose beads. Data was collected on a Roche LightCycler real-time PCS instrument, recording emission intensities at 488 nm and 510 nm as a function of temperature in a 384-well microtiter plate. […] Temperature melts of twelve different wells. Apo protein thermostability as reported by the denaturation mid-point temperature is 349 K, similar to the protein free in solution. […] (F) Representative Langmuir ligand-binding curve extracted from the three-dimensional data.
Temperatures were advanced in 1K steps. […] Under these experimental photobleaching was not observed.

Data set [2] in a line: Glucose binding: isothermal fluorescence titrations, ratiometric (appKd) and monochromatic (trueKd) fits. Also on record: key to Glucose appKd / Glucose trueKd: nb, no bonding. The note with it: for Kd: glucose. The text has this:
2 For a single glucose-binding site, the fractional saturation is given by
[formula] where ^apoIλ2 and ^satIλ2 are the emission intensities of the monochromatic signal at wavelength λ2 of the ligand-free and ligand-bound protein, respectively.

A short description of data set [3]: Galactose binding: isothermal fluorescence titrations of conjugates. Particulars: for Kd: read-out: Galactose trueKd. Also on record: key to Galactose trueKd: nb, no bonding.
Where [4] appears, read: Acrylodan conjugate, monochromatic titration curves, room temperature.
Setting [5] is: Badan conjugate, monochromatic titration curves, room temperature.

For “ecGGBP: glucose-galactose binding protein from Escherichia coli, SEQ ID NO: 1 [reference compound]”, the “mid-point thermal denaturation temperature (Tm)” value in data set [1] (GGBP homologs) is 322 K.

B1: ttGGBP182C.2.0⋅Acrylodan: Acrylodan conjugate of ttGGBP W182C with Q148E+R91K double mutation (SEQ ID NO: 88) (conjugate)
chain: MKQLNIGVAIYKFDDTFMTGVRNAMTAEAQGKAKLNMVDSQNSQPTQNDQVDLFITKKMNALAINPVDRTAAGTIIDKAKQANIPVVFFNKEPLPEDMKKWDKVYYVGAKAEQSGILQGQIMADYWKAHPEADKNHDGVMQYVMLMGEPGHQDAILRTQYSIQTVKDAGIKVQELAKDYANCDRVTAHDKMAAWLSSFGDKIEAVFANNDDMALGAIEALKSAGYFTGNKYIPVVGVDATAPGIQAIKDGTLLGTVLNDAKNQAKATFNIAYELAQGITPTKDNIGYDITDGKYVWIPYKKITKDNISDAEQGGSHHHHHH
modifications: Acrylodan conjugate; ttGGBP182C.2.0 (affinity-tuning mutant, 182C background (Table 6) with signal peptide replaced with M and GGSHHHHHH at C-terminus)
In the case of B1, the Kd in data set [2] (fit of ratiometric emission signal (figure legends), read-out: appKd) came to 4.5 mM; in data set [2] (monochromatic fits at 475 nm and 545 nm (FIG. 11), read-out: trueKd), 6 mM. The “decrease in glucose affinity” value in data set [2] (in ttGGBP182C⋅Acrylodan) was determined as 2.6 fold.

B2: ttGGBP182C.2.9: affinity-tuning mutant, 182C background, SEQ ID NO: 96 (protein)
chain: MKQLNIGVAIYKFDDTFMTGVRNAMTAEAQGKAKLNMVDSQNSQPTQNDQVDLFITKKMNALAINPVDRTAAGTIIDKAKQANIPVVFFNKEPLPEDMKKWDKVYYVGAKAEQSGILQGQIMADYWKAHPEADKNHDGVMQYVMLMGEPGHQDFILRTQYSIQTVKDAGIKVQELAKDYANCDRVTAHDKMAAWLSSFGDKIEAVFANNDDMALGAIEALKSAGYFTGNKYIPVVGVDATAPGIQAIKDGTLLGTVLNDAKNQAKATFNIAYELAQGITPTKDNIGYDITDGKYVWIPYKKITKDNISDAEQGGSHHHHHH
modifications: ttGGBP182C.2.9 (affinity-tuning mutant, 182C background (Table 6) with signal peptide replaced with M and GGSHHHHHH at C-terminus)
In turn, B2 registered an apoTm in data set [1] (Acrylodan conjugate) of 345 K.

B3: ttGGBP182C.2.4: affinity-tuning mutant, 182C background, SEQ ID NO: 91 (protein)
chain: MKQLNIGVAIYKFDDTFMTGVRNAMTAEAQGKAKLNMVDSQNSQPTQNDQVDLFITKKMNALAINPVDRTAAGTIIDKAKQANIPVVFFNKEPLPEDMKKWDKVYYVGAKAEQSGILQGQIMADYWKAHPEADKNHDGVMQYVMLMGEPGHQDMILRTQYSIQTVKDAGIKVQELAKDYANCDRVTAHDKMAAWLSSFGDKIEAVFANNDDMALGAIEALKSAGYFTGNKYIPVVGVDATAPGIQAIKDGTLLGTVLNDAKNQAKATFNIAYELAQGITPTKDNIGYDITDGKYVWIPYKKITKDNISDAEQGGSHHHHHH
modifications: ttGGBP182C.2.4 (affinity-tuning mutant, 182C background (Table 6) with signal peptide replaced with M and GGSHHHHHH at C-terminus)
As to B3, the apoTm in data set [1] (Acrylodan conjugate) amounted to 346 K. Also, the Kd in data set [3] (setting [4]) was determined as 4.5 mM.

B4: ttGGBP182C.2.8: affinity-tuning mutant, 182C background, SEQ ID NO: 95 (protein)
chain: MKQLNIGVAIYKFDNTFMTGVRNAMTAEAQGKAKLNMVDSQNSQPTQNDQVDLFITKKMNALAINPVDRTAAGTIIDKAKQANIPVVFFNKEPLPEDMKKWDKVYYVGAKAEQSGILQGQIMADYWKAHPEADKNHDGVMQYVMLMGEPGHQDAILRTQYSIQTVKDAGIKVQELAKDYANCDRVTAHDKMAAWLSSFGDKIEAVFANNDDMALGAIEALKSAGYFTGNKYIPVVGVDATAPGIQAIKDGTLLGTVLNDAKNQAKATFNIAYELAQGITPTKDNIGYDITDGKYVWIPYKKITKDNISDAEQGGSHHHHHH
modifications: ttGGBP182C.2.8 (affinity-tuning mutant, 182C background (Table 6) with signal peptide replaced with M and GGSHHHHHH at C-terminus)
Consider B4, for which, in data set [1] (Acrylodan conjugate), the apoTm stood at 343 K. In addition, the “S, selectivity = trueKd(galactose)/trueKd(glucose)” value in data set [3] (Acrylodan conjugate, S > 1, selective for glucose) turned out to be 1.8.

B5: ttGGBP182C.2.7: affinity-tuning mutant, 182C background, SEQ ID NO: 94 (protein)
chain: MKQLNIGVAIYKFDDTFMTGVRNAMTAEAQGKAKLNMVDSQNSQPTQNDQVDLFITKKMNALAINPVDRTAAGTIIDKAKQANIPVVFFNKEPLPEDMKKWDKVYYVGAKAEQSGILQGQIMADYWKAHPEADKNHDGVMQYVMLMGEPGFQDAILRTQYSIQTVKDAGIKVQELAKDYANCDRVTAHDKMAAWLSSFGDKIEAVFANNDDMALGAIEALKSAGYFTGNKYIPVVGVDATAPGIQAIKDGTLLGTVLNDAKNQAKATFNIAYELAQGITPTKDNIGYDITDGKYVWIPYKKITKDNISDAEQGGSHHHHHH
modifications: ttGGBP182C.2.7 (affinity-tuning mutant, 182C background (Table 6) with signal peptide replaced with M and GGSHHHHHH at C-terminus)
In turn, B5 registered an apoTm in data set [1] (Acrylodan conjugate) of 346 K.

B6: ttGGBP182C.7: affinity-tuning mutant, 182C background, SEQ ID NO: 101 (protein)
chain: MKQLNIGVAIYKFDDTFMTGVRNAMTAEAQGKAKLNMVDSQNSQPTQNDQVDLFITKKMNALAINPVDRTAAGTIIDKAKQANIPVVFFNKEPLPEDMKKWDKVYYVGAKAEQSGILQGQIMADYWKAHPEADKNHDGVMQYVMLMGSPGHQDAILRTQYSIQTVKDAGIKVQELAKDYANCDRVTAHDKMAAWLSSFGDKIEAVFANNDDMALGAIEALKSAGYFTGNKYIPVVGVDATAPGIQAIKDGTLLGTVLNDAKNQAKATFNIAYELAQGITPTKDNIGYDITDGKYVWIPYKKITKDNISDAEQGGSHHHHHH
modifications: ttGGBP182C.7 (affinity-tuning mutant, 182C background (Table 6) with signal peptide replaced with M and GGSHHHHHH at C-terminus)
In data set [1] (Acrylodan conjugate), B6 displayed an apoTm of 346 K. Also, the Kd in data set [3] (setting [4]) is 1.1 mM.

B7: ttGGBP182C: ttGGBP cys mutant, SEQ ID NO: 61 (protein)
chain: MKQLNIGVAIYKFDDTFMTGVRNAMTAEAQGKAKLNMVDSQNSQPTQNDQVDLFITKKMNALAINPVDRTAAGTIIDKAKQANIPVVFFNREPLPEDMKKWDKVYYVGAKAEQSGILQGQIMADYWKAHPEADKNHDGVMQYVMLMGQPGHQDAILRTQYSIQTVKDAGIKVQELAKDYANCDRVTAHDKMAAWLSSFGDKIEAVFANNDDMALGAIEALKSAGYFTGNKYIPVVGVDATAPGIQAIKDGTLLGTVLNDAKNQAKATFNIAYELAQGITPTKDNIGYDITDGKYVWIPYKKITKDNISDAEQGGSHHHHHH
modifications: ttGGBP182C (ttGGBP cys mutant with signal peptide replaced with M and GGSHHHHHH at C-terminus)
As for B7, the apoTm in data set [1] (Acrylodan conjugate) was determined as 347 K. Further, the Kd in data set [3] (setting [4]) is 3.3 mM.

B8: ttGGBP17C.19: affinity-tuning mutant, 17C background, SEQ ID NO: 77 (protein)
chain: MKQLNIGVAIYKFDDTCMTGVRNAMTAEAQGKAKLNMVDSQNSQPTQNDQVDLFITKKMNALAINPVDRTAAGTIIDKAKQANIPVVFFNREPLPEDMKKWDKVYYVGAKAEQSGILQGQIMADYWKAHPEADKNHDGVMQYVMLMGQPGHQDAILRTQYSIQTVKDAGIKVQELAKDYANWDRVTAHDKMAAWLSSFGDKIEAVFANNDDMALGAIEALKSAGYFTGNKYIPVVGVDATAPGIQAIKDGTLLGTVLDDAKNQAKATFNIAYELAQGITPTKDNIGYDITDGKYVWIPYKKITKDNISDAEQGGSHHHHHH
modifications: ttGGBP17C.19 (affinity-tuning mutant, 17C background (Table 6) with signal peptide replaced with M and GGSHHHHHH at C-terminus)
Take B8: the apoTm in data set [1] (Badan conjugate) came out at 344 K. For the same molecule, the “Glucose appKd” value in data set [2] (Badan conjugate, dichromatic ratiometry, room temperature) is reported as “nb^e”. The “Glucose trueKd” value in data set [2] (setting [5]) was “nb^e”. Also, in data set [3] (setting [5]), the “Galactose trueKd” value is “nb^e”.
